PMC11109279, “Heliorhodopsin-mediated light-modulation of ABC transporter” (Nature Communications, 2024)
Residue numbers refer to the chain shown, from its start.

Tests used:
[1] = target: heterodimeric multidrug resistance ABC transporter OmrDE (Omithinimicrobium cerasi strain USBA17B2); assay: ITC; OcHeR injected into the Omr protein; 25 °C, 500 rpm; buffer SD; MicroCal ITC200; one site binding model (sequential binding site model for R233Q); perfect saturation was not achieved
OmrDE [2] = target: T1, OmrDE (Ornithinimicrobium cerasi, UniProt A0A285VW85+A0A285VWG3); assay: ATP hydrolysis, colorimetric Pi (phosphomolybdate); type: biochemical; details: read-out: Km (mM, ATP); Mg-ATP (MgSO4:ATP 1.5:1), pH 7.0, 25 °C, 0.02% DDM; no OcHeR
T1 construct: gene SAMN05421879_12812; co-expressed heterodimer of two half-transporters; codon-optimized, E. coli C43(DE3), DDM-solubilized, Ni-NTA
From the text: ATP hydrolysis, colorimetric Pi (phosphomolybdate) on OmrDE

OmrDE with OcHeR WT = target: T2, OmrDE with OcHeR WT (Ornithinimicrobium cerasi, UniProt A0A285VW85+A0A285VWG3); assay: ATP hydrolysis, colorimetric Pi (phosphomolybdate); type: biochemical; details: read-out: Km (mM, ATP); Mg-ATP (MgSO4:ATP 1.5:1), pH 7.0, 25 °C, 0.02% DDM; OcHeR WT 1:1, dark
T2 construct: gene SAMN05421879_12812; E. coli C43(DE3), DDM, Ni-NTA; with Heliorhodopsin
T2 sequence (A0A285VW85 1-577): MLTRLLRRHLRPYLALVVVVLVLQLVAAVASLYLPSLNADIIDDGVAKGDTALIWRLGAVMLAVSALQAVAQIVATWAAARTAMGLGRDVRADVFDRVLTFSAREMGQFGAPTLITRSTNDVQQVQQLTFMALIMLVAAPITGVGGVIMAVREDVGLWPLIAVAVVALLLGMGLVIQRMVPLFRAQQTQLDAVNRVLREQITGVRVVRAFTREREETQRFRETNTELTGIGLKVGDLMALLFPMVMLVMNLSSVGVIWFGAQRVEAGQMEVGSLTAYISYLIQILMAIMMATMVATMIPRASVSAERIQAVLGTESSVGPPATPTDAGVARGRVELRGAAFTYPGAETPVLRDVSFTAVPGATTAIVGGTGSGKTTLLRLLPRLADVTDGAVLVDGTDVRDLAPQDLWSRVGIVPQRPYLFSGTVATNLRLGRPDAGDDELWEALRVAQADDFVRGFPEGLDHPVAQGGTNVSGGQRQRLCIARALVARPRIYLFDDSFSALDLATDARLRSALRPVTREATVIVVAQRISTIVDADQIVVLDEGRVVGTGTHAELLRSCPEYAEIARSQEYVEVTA
T2 sequence (A0A285VWG3 1-661): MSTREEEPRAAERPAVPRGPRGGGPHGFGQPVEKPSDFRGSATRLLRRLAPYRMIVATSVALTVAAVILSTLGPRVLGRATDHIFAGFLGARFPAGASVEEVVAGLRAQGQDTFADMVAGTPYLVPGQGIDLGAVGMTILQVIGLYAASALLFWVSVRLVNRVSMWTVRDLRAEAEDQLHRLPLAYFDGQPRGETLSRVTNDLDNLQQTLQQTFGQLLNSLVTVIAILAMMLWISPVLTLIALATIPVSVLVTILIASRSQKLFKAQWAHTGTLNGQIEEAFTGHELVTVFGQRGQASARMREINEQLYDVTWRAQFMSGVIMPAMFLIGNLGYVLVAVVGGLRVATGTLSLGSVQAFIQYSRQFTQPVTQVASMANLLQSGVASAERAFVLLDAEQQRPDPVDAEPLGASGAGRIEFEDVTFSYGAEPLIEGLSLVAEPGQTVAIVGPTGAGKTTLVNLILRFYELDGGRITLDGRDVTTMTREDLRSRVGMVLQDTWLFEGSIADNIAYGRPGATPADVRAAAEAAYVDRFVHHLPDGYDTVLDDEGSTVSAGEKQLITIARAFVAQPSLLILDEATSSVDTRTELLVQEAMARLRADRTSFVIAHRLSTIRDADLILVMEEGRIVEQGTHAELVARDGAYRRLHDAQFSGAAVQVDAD
T2 sequence (A0A285W045 1-266 partner): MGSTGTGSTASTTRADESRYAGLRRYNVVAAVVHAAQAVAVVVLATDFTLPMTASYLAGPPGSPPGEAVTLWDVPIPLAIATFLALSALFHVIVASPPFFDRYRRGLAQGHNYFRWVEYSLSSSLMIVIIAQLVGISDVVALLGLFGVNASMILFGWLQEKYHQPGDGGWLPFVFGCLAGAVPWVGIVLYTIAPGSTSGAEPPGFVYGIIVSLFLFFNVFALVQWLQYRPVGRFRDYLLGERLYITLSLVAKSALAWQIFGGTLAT
From the text: ATP hydrolysis, colorimetric Pi (phosphomolybdate) on OmrDE with OcHeR WT

OcHeR = target: T3, OcHeR (Ornithinimicrobium cerasi, UniProt A0A285W045); assay: UV-visible absorption spectroscopy of purified pigment; type: binding; details: covalent; Schiff base to K252; neutral pH
T3 construct: gene SAMN05421879_12810; purified from E. coli C43(DE3) grown with all-trans-retinal; DDM, Ni-NTA; homodimer
T3 sequence (A0A285W045 1-266): T2 sequence (A0A285W045 1-266 partner)

OmrDE [3] = target: T1, OmrDE; assay: ATP hydrolysis, colorimetric Pi (phosphomolybdate); type: biochemical
Glu118 (position 118, …) = assay: UV-vis; details: not stated for the titration. Purified protein was kept in buffer SD with 150 mM NaCl.; not stated for the titration. Purification buffer SD was 150 mM NaCl, 50 mM Tris-HCl pH 7.0, 0.02% DDM. pH was adjusted by adding HCl and NaOH.; Dark/ground state, retinal-bound, detergent-solubilised, without OmrDE
[4] = target: T4, heterodimeric multidrug resistance ABC transporter OmrDE (Omithinimicrobium cerasi strain USBA17B2, UniProt A0A285VW85 1-577; A0A285VWG3 1-661); assay: cell-based or functional assay
T4 sequence (looked up) 1: T2 sequence (A0A285VW85 1-577)
T4 sequence (looked up) 2: T2 sequence (A0A285VWG3 1-661)

[5] = target: T5, Omithinimicrobium cerasi strain USBA17B2 heliorhodopsin (OcHeR) WT (Omithinimicrobium cerasi strain USBA17B2, UniProt A0A285W045 1-266, retinal Schiff base linked to K252); assay: ITC; OcHeR injected into the Omr protein; 25 °C, 500 rpm; buffer SD; MicroCal ITC200; one site binding model (sequential binding site model for R233Q); perfect saturation was not achieved; details: both partners purified
T5 construct: gene codon-optimized for E. coli and chemically synthesized; source: E. coli C43 (DE3), purified (DDM-solubilized membrane fraction, Ni2+-NTA agarose)
T5 sequence (looked up): T2 sequence (A0A285W045 1-266 partner)

OcHeR R235Q (natural protein) was tested, and the Kd [1] was 26 µM and the dH [1] was 2.4 kcal/mol.

`Nc1ncnc2c1ncn2[C@@H]1O[C@H](COP(=O)(O)OP(=O)(O)OP(=O)(O)O)[C@@H](O)[C@H]1O` [ATP] was tested, and the Km (OmrDE [2]) was 19.2 ± 12.3 mM and the Km (OmrDE with OcHeR WT) was 10.4 ± 7 mM.

OcHeR W225A (natural protein) gave a Kd [1] of 16.9 µM and a dH [1] of 11.8 kcal/mol.

OcHeR R233Q (natural protein) gave a Kd of the first binding (sequential binding site model) [1] of 42.9 µM, a Kd of the second binding (sequential binding site model) [1] of 25.3 µM and a dH of the first binding (sequential binding site model) [1] of 5.9 kcal/mol. It also gave a dH of the second binding (sequential binding site model) [1] of 38.7 kcal/mol.

In the case of OcHeR R229Q (natural protein), the Kd [1] is reported as 5.1 µM and the dH [1] is reported as 8.6 kcal/mol.

With `CC1=C(/C=C/C(C)=C/C=C/C(C)=C/C=O)C(C)(C)CCC1` [all-trans-retinal] the retinal attachment site (OcHeR) was “retinal Schiff base linked to K252 of OcHeR”.

`N=C(N)c1ccc(-c2cc3ccc(C(=N)N)cc3[nH]2)cc1` [DAPI] showed an IC50 (OmrDE [3]) of 47.4 µM.

B1: Heliorhodopsin OcHeR (Ornithinimicrobium cerasi strain USBA17B2 (spelled 'Omithinimicrobium cerasi' in the main text)) (protein)
chain: T2 sequence (A0A285W045 1-266 partner)
B1 was tested, and the pKa (Glu118 (position 118, …)) was 2.9.

B2: OcHeR R102Q (natural protein)
chain: T2 sequence (A0A285W045 1-266 partner) with R102Q
modifications: retinal Schiff base linked to K252
For B2, the “kcat/Km of ATP hydrolysis of purified OmrDE with OcHeR R102Q (1:1), absence of light” value [4] was 21.4 M^−1 S^−1 and the “kcat/Km of ATP hydrolysis of purified OmrDE with OcHeR R102Q (1:1), presence of light (532 nm)” value [4] was 18.1 M^−1 S^−1.

B3: NBD-truncated OmrDE (OmrD^tcE^tc) (complex)
chain 1: MLTRLLRRHLRPYLALVVVVLVLQLVAAVASLYLPSLNADIIDDGVAKGDTALIWRLGAVMLAVSALQAVAQIVATWAAARTAMGLGRDVRADVFDRVLTFSAREMGQFGAPTLITRSTNDVQQVQQLTFMALIMLVAAPITGVGGVIMAVREDVGLWPLIAVAVVALLLGMGLVIQRMVPLFRAQQTQLDAVNRVLREQITGVRVVRAFTREREETQRFRETNTELTGIGLKVGDLMALLFPMVMLVMNLSSVGVIWFGAQRVEAGQMEVGSLTAYISYLIQILMAIMMATMVATMIPRASVSAERIQAVLGTESSVGPPATPTDAGVARGR
chain 2: MSTREEEPRAAERPAVPRGPRGGGPHGFGQPVEKPSDFRGSATRLLRRLAPYRMIVATSVALTVAAVILSTLGPRVLGRATDHIFAGFLGARFPAGASVEEVVAGLRAQGQDTFADMVAGTPYLVPGQGIDLGAVGMTILQVIGLYAASALLFWVSVRLVNRVSMWTVRDLRAEAEDQLHRLPLAYFDGQPRGETLSRVTNDLDNLQQTLQQTFGQLLNSLVTVIAILAMMLWISPVLTLIALATIPVSVLVTILIASRSQKLFKAQWAHTGTLNGQIEEAFTGHELVTVFGQRGQASARMREINEQLYDVTWRAQFMSGVIMPAMFLIGNLGYVLVAVVGGLRVATGTLSLGSVQAFIQYSRQFTQPVTQVASMANLLQSGVASAERAFVLLDAEQQRPDPVDAEPLGASGAGR
With B3 the Kd [5] was 38.9 µM.
